Source: patent US20240425593A1 (SICHUAN KELUN BIOTECH BIOPHARMACEUTICAL, published 2024)
Numbering of substitutions follows the chain as printed. Names and notes keep the numbering of the source.

What was measured:
human PD-1-hFc [1] = target: T1, human PD-1-hFc (human, UniProt Q15116 25-170); assay: competitive ELISA, coated PD-1-hFc, competitor PDL2-mFc
T1 construct: extracellular domain; Extracellular domain of human PD-1 fused to an hFc tag, made in house; not shown: hFc tag
Description: (§1) The specific experimental steps were as follows: human PD-1-hFc was diluted to 1 μg/mL with CBS solution, coated on a 96-well ELISA plate (purchased from Guangzhou Jiete Bio) at 4° C. overnight. After washing, 100 μL of phosphate buffer (PBS) containing 2% BSA was used for blocking at 37° C. for 1 hour. […] After washing, a goat anti-mouse secondary antibody labeled with HRP diluted in phosphate buffer (PBS) containing 2% BSA in a ratio of 1:15000 was added, followed by incubating at room temperature for 1 hour. After washing, the TMB chromogen solution was used for developing, and the absorbance value was read using a microplate reader at 450 nm, and the data were imported into Graphprism to calculate ICs values.

human PD-1-His [2] = target: T2, human PD-1-His (human, UniProt Q15116 25-170); assay: ELISA, coated human PD-1-his
T2 construct: extracellular domain; not shown: His tag
Description: (§2) To verify the affinity of the humanized PD-1 antibody to PD-1-His antigen, ELISA was employed. The specific experimental steps were as follows: human PD-1-his was diluted to 1 μg/mL with CBS solution, then coated on a 96-well ELISA plate (purchased from Guangzhou Jiete Bio) at 4° C. overnight. […] After washing, a goat anti-mouse secondary antibody (FC) labeled with horseradish peroxidase diluted in phosphate buffer (PBS) containing 2% BSA in a ratio of 1:15000 was added, followed by incubating at 37° C. for 1 hour. After washing, the TMB chromogen solution was used for developing, and the absorbance value was read using a microplate reader at 450 nm. The data were imported into Graphprism to calculate EC₅₀ values.

human PD-1-hFc [3] = target: T1, human PD-1-hFc; assay: competitive ELISA, coated PD-1-hFc, competitor PDL1-mFc
Description: as §1

human PD-1-His [4] = target: T2, human PD-1-His; assay: BLI (Octet ForteBio), antibody on ProA biosensor, PD-1-His in solution
[5] = target: T3, PD-1 on Jurkat-PD-1-NFAT cells (UniProt Q15116 25-288, limits assumed); assay: cell-based or functional assay
human PD-1-hFc [6] = target: T1, human PD-1-hFc; assay: competitive ELISA, coated human PD-1-hFc, competitor hPD-L2-mFc
Description: as §1

human PD-1-His [7] = target: T2, human PD-1-His; assay: BLI (Octet ForteBio), human PD-1-His
[8] = target: T4, full-length human PD-1 on CHO-hPD-1 cells (human, UniProt Q15116 25-288); assay: competitive FACS on CHO-hPD-1 cells, competitor PD-L1-mFc-Bio
T4 construct: whole, on cells; also called PD-1 on the cell membrane surface of CHO-hPD-1
Description: The data were imported into Graphprism to calculate IC₅₀ values.

human PD-1-hFc [9] = target: T1, human PD-1-hFc; assay: competitive ELISA, coated human PD-1-hFc, competitor hPD-L1-mFc
Description: as §1

human PD-1-His [10] = target: T2, human PD-1-His; assay: BLI (Octet ForteBio), antibody on ProA biosensor, human PD-1-His in solution
monkey PD-1-hFc = target: T5, monkey PD-1-hFc (monkey); assay: ELISA, coated monkey PD-1-hFc
T5 construct: Extracellular domain of monkey PD-1 fused to an hFc tag, made in house; not shown: The hFc tag and any linker
T5 chain: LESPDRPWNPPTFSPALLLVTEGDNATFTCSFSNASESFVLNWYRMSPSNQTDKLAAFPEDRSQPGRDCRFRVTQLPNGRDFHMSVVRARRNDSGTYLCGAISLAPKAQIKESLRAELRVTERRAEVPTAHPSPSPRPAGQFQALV
Description: as §2, with “The” for “To verify the affinity of the humanized PD-1 antibody to PD-1-His antigen, ELISA was employed. The”, “PD-1-hFc and monkey PD-1-hFc antigens were” for “PD-1-his was”, “anti-human” for “anti-mouse”, “nm, and the” for “nm. The”

human PD-1-ECD-mFc = target: T6, human PD-1-ECD-mFc (human; mouse, UniProt Q15116 25-170); assay: ELISA, coated antigen (column head: Human PD-1-mFc; text of Example 4.2: human PD-1-hFc)
T6 construct: extracellular domain; Made in HEK293F cells; also called human PD-1-mFc; PD-1-mFc; not shown: mouse Fc (mFc) amino acids, AB097847.1
Description: as §2, with “The” for “To verify the affinity of the humanized PD-1 antibody to PD-1-His antigen, ELISA was employed. The”, “PD-1-hFc and monkey PD-1-hFc antigens were” for “PD-1-his was”, “anti-human” for “anti-mouse”, “nm, and the” for “nm. The”

[11] = target: T3, PD-1 on Jurkat-PD-1-NFAT cells; assay: cell-based or functional assay; remark: listed apart in the source

B1: humanized antibody 29C6-HZ1 (antibody, human IgG4 S228P, kappa, V domains shown)
VH: QVQLVQSGAEVKKPGASVKVSCKTSGYTFTEYTIYWVRQAPGQGLEWIGGINPKNGATLYNQKFQGRVTLTVDKSTSTAYMELRSLRSDDTAVYYCVRDYHGNSHDSMDYWGQGTLVTVSS
VL: EIVLTQSPATLSLSPGERATLSCSASSSVSYMHWFQQKPGQAPRLWIYYTSNLASGVPARFSGSGSGTDYTLTISSLEPEDFAVYYCQQRSDYPPTFGGGTKVEIKR
- IC50 (human PD-1-hFc [1]): 3.63 nM
- EC50 (human PD-1-His [2]): 0.42 nM
- IC50 (human PD-1-hFc [3]): 3.11 nM

B2: humanized antibody 29C6-HZ2 (antibody, human IgG4 S228P, kappa, V domains shown)
VH: B1 VH with A9V, Q65K, G66V, V68A, S77T, R84K, R87Q, S88F, L116T
VL: B1 VL with W46L
- IC50 (human PD-1-hFc [1]): 0.95 nM
- EC50 (human PD-1-His [2]): 0.16 nM
- Kd (human PD-1-His [4]): 1.65 nM
- koff (human PD-1-His [4]): 0.000454 s⁻¹
- kon (human PD-1-His [4]): 275000 M⁻¹ s⁻¹
- IC50 (human PD-1-hFc [3]): 0.88 nM
- EC50 from the PD-1/PD-L1 luciferase reporter system [5]: 5.74 nM

B3: chimeric antibody 14A4-CH (antibody, human IgG4 S228P, kappa, V domains shown)
VH: EVQLVESGGGLVKPGGSLKLSCAASGFTFSSYGMSWGRQTPEKRLEWVATISGGGSDTYYPDSVKGRFTISRDNVKNNLYLQMSSLRSEDTALYYCARQYGITWFAYWGQGTLVTVSA
VL: not shown
notes: Murine 14A4 variable regions fused to the IgG4 (S228P) heavy chain constant region and the human kappa constant region
- IC50 (human PD-1-hFc [6]): 1.17 nM
- fold stronger affinity than the control antibody 1 (human PD-1-His [7]): 4.3 times
- IC50 [8]: 0.75 ng/mL
- IC50 (human PD-1-hFc [9]): 1.12 nM
- Kd (human PD-1-His [10]): 1.49 nM
- koff (human PD-1-His [10]): 0.000206 s⁻¹
- kon (human PD-1-His [10]): 138000 M⁻¹ s⁻¹
- EC50 (monkey PD-1-hFc): 0.171 nM
- EC50 (human PD-1-ECD-mFc): 0.082 nM
- EC50 (nM), cell activity for blocking PD-1/PD-L1 binding, luciferase reporter gene assay [11]: 8.4 nM

B4: humanized antibody 91D5-HZ1 (antibody, human IgG4 S228P, kappa, V domains shown)
VH: EVQLVQSGAEVKKPGASVKVSCKASGYTFTDYYMNWVREAPGQGLEWMGEINPKYGDTTYAQKLQGRVTLTVDKSTSTAYMELSSLRSDDTAVYYCAKGIRLFDSWGQGTLVTVSS
VL: DIQLTQSPSSLSASVGDRVTITCRPSGNVHNYFAWYQQKPGKSPKLLVYNAKTLAEGVPSRFSGSGSGTDYTLTISSLQPEDFATYYCHHYYTAPFTFGGGTKVEIKR
- IC50 (human PD-1-hFc [1]): 1.25 nM
- EC50 (human PD-1-His [2]): 0.39 nM
- Kd (human PD-1-His [4]): 1.89 nM
- koff (human PD-1-His [4]): 0.00053 s⁻¹
- kon (human PD-1-His [4]): 281000 M⁻¹ s⁻¹
- IC50 (human PD-1-hFc [3]): 1.19 nM

B5: humanized antibody 91D5-HZ2 (antibody, human IgG4 S228P, kappa)
heavy: not shown
light: DIQLTQSPSSLSASVGDRVTITCRPSGNVHNYFAWYQQKPGKSPKLLVYNAKTLAEGVPSRFSGSGSGTDYTLTISSLQPEDFATYYCHHYYTAPFTFGGGTKVEIKRTVAAPSVFIFPPSDEQLKSGTASVVCLLNNFYPREAKVQWKVDNALQSGNSQESVTEQDSKDSTYSLSSTLTLSKADYEKHKVYACEVTHQGLSSPVTKSFNRGEC
- IC50 (human PD-1-hFc [1]): 1.22 nM
- EC50 (human PD-1-His [2]): 0.42 nM
- Kd (human PD-1-His [4]): 1.5 nM
- koff (human PD-1-His [4]): 0.000472 s⁻¹
- kon (human PD-1-His [4]): 315000 M⁻¹ s⁻¹
- IC50 (human PD-1-hFc [3]): 1.13 nM
- EC50 from the PD-1/PD-L1 luciferase reporter system [5]: 4.47 nM

B6: chimeric antibody 35E6-CH (antibody, human IgG4 S228P, kappa)
heavy: not shown
light: CIVLTQSPASLAVSLGQSVTISCRASESVEYYGTNLMQWYQQKPGQPPKLLIYFASNVASGVPARFSGSGSGTDFSLNIHPVEGDDIARYFCQQSKKVPSTFGGGTKLEIKRTVAAPSVFIFPPSDEQLKSGTASVVCLLNNFYPREAKVQWKVDNALQSGNSQESVTEQDSKDSTYSLSSTLTLSKADYEKHKVYACEVTHQGLSSPVTKSFNRGEC
notes: Murine 35E6 variable regions fused to the IgG4 (S228P) heavy chain constant region and the human kappa constant region
- IC50 (human PD-1-hFc [6]): 1.78 nM
- IC50 (human PD-1-hFc [1]): 1.11 nM
- fold stronger affinity than the control antibody 1 (human PD-1-His [7]): 15.4 times
- IC50 [8]: 1.58 ng/mL
- IC50 (human PD-1-hFc [9]): 1.6 nM
- EC50 (human PD-1-His [2]): 0.2 nM
- IC50 (human PD-1-hFc [3]): 0.88 nM
- Kd (human PD-1-His [10]): 0.416 nM
- koff (human PD-1-His [10]): 0.000123 s⁻¹
- kon (human PD-1-His [10]): 296000 M⁻¹ s⁻¹
- EC50 (monkey PD-1-hFc): 0.198 nM
- EC50 (human PD-1-ECD-mFc): 0.103 nM
- EC50 (nM), cell activity for blocking PD-1/PD-L1 binding, luciferase reporter gene assay [11]: 5.53 nM

B7: chimeric antibody 91D5-CH (antibody, human IgG4 S228P, kappa, V domains shown)
VH: EVQLQQSGPELVKPGASVKISCRASGYTFTDYYMNWVKESHGKSLEWIGEINPKYGDTTYNQKFKDKATLTVDKSSSTASVELRSLTSEDSAVYYCAKGIRLFDSWGQGTTVTVSS
VL: DIQLTQSPASLSASVGETVTITCRPSGNVHNYFAWYQQKQGKSPQLLVYNAKTLAEGVPSRFSGSGSGTQYSLKINSLQPEDFGTYYCHHYYTAPFTFGSGTKLEIKR
notes: Murine 91D5 variable regions fused to the IgG4 (S228P) heavy chain constant region and the human kappa constant region
- IC50 (human PD-1-hFc [6]): 1.39 nM
- IC50 (human PD-1-hFc [1]): 1.08 nM
- fold stronger affinity than the control antibody 1 (human PD-1-His [7]): 11.7 times
- IC50 [8]: 0.96 ng/mL
- IC50 (human PD-1-hFc [9]): 1.23 nM
- EC50 (human PD-1-His [2]): 0.29 nM
- Kd (human PD-1-His [4]): 0.547 nM
- koff (human PD-1-His [4]): 0.000177 s⁻¹
- kon (human PD-1-His [4]): 324000 M⁻¹ s⁻¹
- IC50 (human PD-1-hFc [3]): 0.96 nM
- Kd (human PD-1-His [10]): 0.549 nM
- koff (human PD-1-His [10]): 0.000143 s⁻¹
- kon (human PD-1-His [10]): 261000 M⁻¹ s⁻¹
- EC50 (monkey PD-1-hFc): 0.235 nM
- EC50 (human PD-1-ECD-mFc): 0.09 nM
- EC50 (nM), cell activity for blocking PD-1/PD-L1 binding, luciferase reporter gene assay [11]: 4.41 nM

B8: humanized antibody 35E6-HZ1 (antibody, human IgG4 S228P, kappa)
heavy: not shown
light: EIVLTQSPATLSLSPGERATLSCRASESVEYYGTNLMQWYQQKPGQPPRLLIYFASNVASGIPARFSGSGSGTDFTLTISSLEPEDFAVYFCQQSKKVPSTFGQGTKVEIKRTVAAPSVFIFPPSDEQLKSGTASVVCLLNNFYPREAKVQWKVDNALQSGNSQESVTEQDSKDSTYSLSSTLTLSKADYEKHKVYACEVTHQGLSSPVTKSFNRGEC
- IC50 (human PD-1-hFc [1]): 1.15 nM
- EC50 (human PD-1-His [2]): 0.3 nM
- Kd (human PD-1-His [4]): 1.31 nM
- koff (human PD-1-His [4]): 0.000517 s⁻¹
- kon (human PD-1-His [4]): 395000 M⁻¹ s⁻¹
- IC50 (human PD-1-hFc [3]): 0.94 nM
- EC50 from the PD-1/PD-L1 luciferase reporter system [5]: 3.63 nM
